This passage reports Kd results from article PMC3904923 (2014).

Experiment [1] has as its target T1, dansylated calmodulin (rat, UniProt P0DP30 1-149, dansyl group covalently bound to CaM (position not given)). In words: 3.9 uM Ca2+ (poor 1:1 fit, Bmax constrained).
The target of experiment [2] is T1, dansylated calmodulin. In words: absence of Ca2+.

B1: Kv7.2 CaM binding domain (residues 310–548), Q2AB WT (domain or fragment)
chain: not shown
By Kd is commonly meant the equilibrium constant for the complex coming apart. Low values mean a tighter complex, high ones a looser complex. With B1, the results for the Kd in experiment [1] and in experiment [2] were 21.4 nM and 4.8 nM, respectively.
